Experimental findings from the NTF2 design screens of Basanta et al. (2020) are described below.

A short description of this series: protease stability score; higher = more stable; yeast display proteolysis, trypsin and chymotrypsin.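 Further: relative to predicted unfolded state with 0 unfolded-like and 1 meaning tenfold more protease.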
Consider “DESEELTEELSRLWLHWYLTGDEEIFKHNFDPNARQDYNGKEIHGRDRVVRFLEELWRMLGAKHFHIRHEEYYGNKVRIEGHITVGDKHRETEIQINIINGKIKEIRIEVK”, for which the protease stability score was determined as 2.12.

On to “SEDHEFVRFIIEQLLHDLFTGDWRRLLKLFDPNAMIEVGDKTLHGMENIYRWHEEHYERLGLSNVEIHILIRKIHIQGDKVHIDGLLRLHFNGRDTEIHVRLHALKIDGKWQLTRVQHD”, for which the protease stability score was found to be 1.89. The value for “SEDEEQMKRFLDHWIHFLQTGDEEESNKLADPHTRMEIGDFELHGREEYRKWFRHIIERVDHTDVRTKDSDIVNGVAIHDIEIHIEVGDKRIRRKSEMVVLKVDGRWYIQRMHFI” was 0.846. Consider “DEEEEIVMKNARDLIHLTQTGDFEKQRHLLDPHVLVVLVQGDKRIEQHGWHFWKYLMKEIRIKHIRIDHVEAQGNKAQVRGTVDGNINGRDTHWEFELTFVFIDGRIRTIDIRID”, for which the protease stability score came to 1.4. Turning to “SESEDLLETLERVIRRVDETGDERDFHEMLDPDARIIIGDKIHIGREASELWFKRVDHIHHRHIHQIRVIGNKMHIDIEVDGKIGDWRFRTRVELVLVKVNGKWMVHHININ”, the protease stability score worked out at 1.17. The figure for “DDEDRHASKLYHIIVHLEVTGDFEKWRDYADPNVRIVIGDKEFHGRELFMEWLKEIRLERFRIKHIKVIGEKTNSTTSFEVNVNGVRIENDTRIHIHVIDGKVHSVHFEIR” is 1.57; for “SEDDETSSKAMHRILEIFETGDWKKLAKLADPNVRLRIDGQDVHGRELFTKIFRTELERFGHEQFEVHKSHEDVQGDKLELHTLVIYGDKRERIEIHSVKFNGVWLISTMRIDRH” it is 0.935. For “DEIDEISKQMVRDFVHSWRTGDWKVLRELADPHALIIFNGREFHGWEHILRVFLELIRRYKNARVDIEEVIVQGDKIHIHLRIDQGDKSHTVNIHIDIIDGKLKRLEIDVT”, the protease stability score is 2.27. The value for “SELEHMLREVLHLLYESLETGDEELLETLVDPRMRLYINGQLIHGMDLAVEIELRRSREMRFRDWKIHSIHVQGNKAFMDVRHVGQINGVHISLEHEILIHKINGRWTIEERITK” was 0.43; that for “DETEDTSRHLLELFAHALRTGDEESSDRLLDPHVRIDINGKELIGRERFRELWEEMRIEWVKIRDVSIINGQVHVNGEMLMVYDGRTYTIETRIIILKVDGRWVIEHMKIG” was 1.43; that for “DEDTKASELAIEILIKILLTGDEDSLNHLFDPNVRLEVGDKQMHGMESMVKFQRHWRVNHTIVKRMEIINIGDKMHIHLVGHINGDFNGKTSEHESHVHILNEKVNGRWLIRSMEIEIR” was 1.62.

The sequence “DEEEELAKEMLERFNKSLHTGDEESIERLLDPDVRVIFNGKDLIGRETVADFLKEWRMSVHTFEIRRFHSQGEKMHLDGHTEIKIHFNGKTVHLNHRVEHHMHKVNGRWTIHSIQFL” displayed a protease stability score of 1.18. With “SEEDEEIHRNLRILVEAIHTGDETTMSKLIDPHARLKVGDKDHHGREKMTEFLIELGIDHIVFRRTRIINGRAEHHGHIKVGDKKMETRIISDKIDGKWIITEVIIH”, the protease stability score was determined as 1.51. The figure for “DDLEHEAHEFVRRFMEDFDTGNEKSFEDLADPNVRLDFDGKRQHGRETVSEWLYRWLYDLGIKHTTLRHVETINGRVHSTAELKVGDKHYDLHVEFKKVDGKWVFQRVYFR” is 1.11; for “SEDSEHAVEYMRLLRESMHTGDEKSWEDMMDPNMRILINGKDLIGWEEFSEFLRRFDHWEIRHVEIKDTKLINGRIELKGRMDIRLTINGKETSHVRNVHILSLKVNGRWILKSIEIE” it is 1.34; for “REDEQLFHEMLRRVIHALLTGDEQILADLLDPRMRIMYDGVSRHGWHDFIEVLRDLGFDHLILKDYRIQGDYVRFHFIIEQGDKHHTVEIHVQIWDGKVEQIVVNYR” it is 2.04. Sequence “DESEKLVERLTEDFRKAFETGDEKRLYNLMDPNVRLDINGVEIIGRELISKDLAHDLRRFKNVKMEFRLREIRVIGNFAHIDGRDIINVDGVEKYHESNYIVHKIDGRWHIKEIIIH” gave a protease stability score of 1.52.

“DEEHREAREAVEDDLRELITGNWDMLRRNLDPRMRLNIDGQDIHGRESVHKRWVELMEELGIDHLELHRVDVIDGRIHTDGHERVDGKHIKVLIVAVKINGRWIIKRLHVH” had a protease stability score of 0.675.

“TEDDEHLEEEAEEYKEYVRTGDWKKIFELADPHTKIDIGNYKRHGMEDFLRDVIHVYTKLGVTIEHHVHDVRVINGRAHVNMEVRVHYGEKDERIKTTLIMRKVDGRWKLTSIHFK”: the protease stability score is 1.15. The value for “DEEEHSYEWAHKVSRHTTETGNEDLSRELADPNVRVIIGDKEYHGWKFMTHLLAHLRIKHIIIRSIRVQGNKLDLNEEVHGEIDGKDETFKLDLVILKVNGRWVIKSVRVE” was 0.612; that for “SEREEHTEEVWRDWLQSILTGDEDDLKRLADPHVRLEINFDGRTLIYHGREIVARFWSELRIRHFTLRHLKMIGDKIQVKGETKLEQGDKKVDSSVDLDTDIINGVIKREFVVYR” was 0.892; that for “SLEEHAFRLALHLLENMWLTGDEELFERLLDPHARLEFENHKYHGRDIVSEFMRRIKNLTFHRIIFRNRDVQGEKVSFIMETDVEWNGKRHIEHTHITVHKINGVWLIHEVDIR” was 1.42. The figure for “NEEKRDSDILRRHLLEVLDTGDWDRMHELADPNAKTHFNGRDHHGREDMTHLFRELGVKHQELRSVHLQGNYVEITIHVSVDGRHVHLRFFMVKIDGKWRIRHMEIEWL” is 1.14; for “DEERKWTKEALDKLLRVIATGDEDFINQNADPRVRLEINGVEIHGRELWHKILKDHSERMGVKHTHLESHDEFNGVITIHMRLFVGDKETRIEIINLKVDGKWIIKSLRIE” it is 1.22; for “DDRDREARKLIQEITHALHTGDEELMEHMLDPSVRTNINGKDIHGMDLFYKWLIELVRRLGADHLNFEVKRVQLYGNKLNTDGHLFVHQGDFTILLNVRWYNLKVNGKWIHESIEIR” it is 1.45. For “SELEKDQEDFVRIVEEMMNTGDEHVFKNLADPHVRNDVNGKDVHGRELVTKIWHFLLRHLGINHIELKHVEIYGNKVIIHMEERVGDKRVELVIVAEKVNGKWYLSEIRFEHK”, the protease stability score was 1.28. The figure for “DEEDKWETHFLKVLEDSLKTGDETSLERMADPTARLSVGDKEHHGRDLLFFWIHKLLREAGVDKVESELHDEERQGEKVIVDIHLRVGDKVLRVIFYIYKYNGQWFIRSIEVE” is 1.04; for “SDEDEISKHWVELLVEHIKTGDEDFLFKMFDPNVRVIIGDKIMHGRETLLDLIEKELKEAGITRFSMNLHHVDTQGDKAHSNMILDVNGVYRNVRVHFEKIDGKWHMHTWEER” it is 1.99; for “DKEEEDSDEALKWFFDVLRTGDERLIREMLDPDARIEIDGVPSHGRESVEEFVHRIRNMKVDDFQVKRIDVQGDKVRLDTHFDGTINGVRRQVDLTIIARKINGRWFNESISIK” it is 1.91.

In turn, “SEEHEKTRRALELWIDVMKTGDPEHILRLLDPHTKIHQGEFELHGRHDAHRWLSRLGVERIHFELKDVRYFDGQILVDGVIFFNGRESRVNVVAMKVNGRWFVDSLEIQ” registered a protease stability score of 0.755. As to “DDTDRRSRILTELSLNLFRTGDWKLFEEMADPHARMSMDVDGKELRHHGRESVSHVWHRQLFELGVDHYDLHDVKVIDGVMHVFSEVKVGDKRLELLIVAEKVNGKWHIREVHIKII”, the protease stability score came to 0.202. “NEEEDINHHIVELFFHLLHTGDWEELEKLADPHARLEINGRRFHGRENVVTQLWELLHRIDHVEIRDLRVQGDKVHVDTRLRIGDKEKKTEWDIVVVNGKIKRSRVRVH” came in with a protease stability score of 2.02.

Sequence “DHQERHLREFAHEVEEAWHTGDWKDMFRLFDPNTRVDFHFENHDLHLHGRESMVRFIRDFLDKFKNIRLQLTSRDRQGDKVHLTEEFHINGRIMVIHVNFDIVNGKWKRLELDFIDT” displayed a protease stability score of 1.25. Consider “RDKERMVHFIANYVLHSVLTGDWKMLFDLLDPSMRLEIGEKDSHGRENAEKLLHEFLEKLGADHTDIRRSHVTFQGDKIIIIINTEIDINGVRHEIWVRVIILKIDGKWVLESIRIEIR”, for which the protease stability score worked out at 1.54. The figure for “DETEEMVREMAHLFLHLWITGDEEIIKHLLDPSVRLHINGVDNHGRENALEVVHRILKELRLRHLHIHEVHIINGVIHNNIRLDIEQGDKRRILEIEVILVVWNGKIKSIEVRLK” is 1.51. The value for “TEEEEDARRATEELVRIINTGDEDRWERLMDPDVRVEVGDKEIHGRETLSEIFKFKHKHLRIKMDIRDMRLIDGKVWVDIVIDVEFDGRRHIHKTTIVLIKVNGRWRLDEVRLH” was 1.77.

In turn, “DELREHVEEVMRWFFERIKTGDEENFHKMADPDARLQVGDKNVHGRENVLKEWRRHREEIRIEDMKIRELHVIGNYAYLDIHVDITYNGKRKETRVELRVVVIDGRIEHIEIRIN” had a protease stability score of 0.439.

In turn, “DENRELMERIARLVLHWLHTGDEHFIERLVDPHARVQQGDKEDHGMDRVVEMWNELRVHHVELRHLEVFENHATIHGEIDGEINGQRVRLDFHIHIHIVDGRMETIHVHFR” had a protease stability score of 2.1. “SESKHDLIRIFEERSEAHETGDEDFIMELIDPHVKIIIGDKTFHGREKYLEWEKLFGVKHVHFHVKDVRFQGDKVHVNGILRIRVGDKHEEFQVHILITKVNGVWIIKEIEIN” displayed a protease stability score of 1.35. “DDRERESKEAVEFFLHAVDTGDFDRIREMLDPHMRVEIDGQEFHGRERALDLIHKEMFDLGVDRIRIEIHDMELVDGRVEVDVHVDVNGRIIRSEYIMKKIDGRWRIHSIKRR” registered a protease stability score of 1.98. The sequence “DDSDQANKIMLEVLRRKLDTGDEDSIRKLADPHARIVIGDKTIHGMDEHTNELRHMLELWGVDRVELHIRHVEKQGDKLRVDGELHFNGVSVRVIFLHEKINGRWFMRHTEIR” returned a protease stability score of 0.984. Take “DEHTHEAHKFLREYWSNLQTGDEEKIINLVDPRVRMIINGKELHGREEFSKALHDEYRRMGMTIQTFTLQHLEIQGEKVHADVEIITHYDGRHTSIHLHLIVQKINGRWLMREVEIR”: the protease stability score was 1.32. Take “DEEEKVSRLAWELLFKTWKTGDEHEFHHMFDPDVRVDFNGRHLHGREAEEILFKQVDHIEDLHLRHIHMIDGKIQIEEDVVGHFNGQRTNVHVRFVAKKIDGRWRNKMVIVR”: the protease stability score was determined as 1.2. The sequence “NEEQNHAERMMRENLHNIMTGDEHKLHKLADPDARIEIGDKEIIGRELFSRILLELRFEITRVHIREITLIGDKVHVRTEEDVVIKVNGVEKRRHINSEWIFFKFNGQWLLKEVRFE” showed a protease stability score of 1.34.

The sequence “EEESKVASDIIELHMRFLLTGNWEMFLRLADPHVRIETEDHRDHGRDWYEKLFRHIRSHVEDMRIKHVELQGDKLHAHGSVRLLIVDGDKYIEVEVDFRFIFDKVNGKWILSSIHLK” registered a protease stability score of 2.29. As to “SEEHEEERHHVEDLLRALWTGNEEHLKKLADPHMRTILIVNGKQLDLHGWRDMWRALREIRERLGIDHEHIHRSRIYNGRLEIDSRVEVDGVHHIVKIRVDVIDGKNHEFKIEFR”, the protease stability score stood at 1.63.

“DERKEMTRHFTEEWIRLWETGDFEHMHDLFDPHARIIIDGQDHHGMEHVNERWRRIKNIRLEIKDFKVYGDKIFIDLKVTVNGREEKVEIIVVVVDGKFKMIEFRFV”: the protease stability score stood at 2.11.
